The values that follow come from US6376240, “RFLAT-1: a transcription factor that activates RANTES gene expression” (Board of Trustees of the Leland Stanford Junior Unversity).

Data set [1] addresses T1, RFLAT-1 C-terminal portion (aa 59-288) (homo sapien, UniProt Q9Y2Y9 SEQ:59-288). Description: EMSA. The settings on record: tags: His6 (pET-28a); label: 32P. As for the experimental part:
(§1) The wells were incubated in blocking buffer (5% goat serum, 5% horse serum, 0.1% Triton X-100 in PBS), washed in PBS supplemented with 0.1% Triton X-100, and incubated with antigen purified rabbit polyclonal anti-RFLAT-1 (1:500 [v/v]) or rabbit IgG (1:500 [v/v]) (Santa Cruz Biotechnology, Santa Cruz, Calif.). The wells were washed, incubated with goat anti-rabbit FITC (1:2000 [v/v]) (Caltag, Burlingame, Calif.), and anti-FITC Alexa™ 488 (1:2000 [v/v]) (Molecular Probes, Eugene, Oreg.). Finally, the slide was washed with PBS, covered with mounting media (1:3 [v/v], Vectashield with propidium iodide) (Vector, Burlingame, Calif.), cover slipped and sealed. EMSA and supershift assays were performed essentially as described by Ortiz et al., 1996, supra. Oligonucleotides were synthesized by Life Technologies, Inc. (Gaithersburg, Md.) and purified by a polyacrylamide-urea gel. Oligonucleotides were end-labeled using [γ-^32P] ATP and T4 polynucleotide kinase. The following oligonucleotides were used:
(§2) A carboxyl terminal portion of RFLAT-1, including the zinc finger DNA binding domain (nucleotides 550–1430), was isolated through expression cloning using an oligonucleotide probe containing three tandem A sites of the RANTES promoter.
(In general: Mobility shift assays separate free from complexed probe on a gel.)

Data set [2] deals with T1, RFLAT-1 C-terminal portion (aa 59-288). The experiment in a line: EMSA; two retarded bands, possible oligomerization. The note with it: tags: His6 (pET-28a); label: 32P. How it is done:
as §1, §2

T1 sequence (Q9Y2Y9 other isoform, or with tags, fused parts or gaps): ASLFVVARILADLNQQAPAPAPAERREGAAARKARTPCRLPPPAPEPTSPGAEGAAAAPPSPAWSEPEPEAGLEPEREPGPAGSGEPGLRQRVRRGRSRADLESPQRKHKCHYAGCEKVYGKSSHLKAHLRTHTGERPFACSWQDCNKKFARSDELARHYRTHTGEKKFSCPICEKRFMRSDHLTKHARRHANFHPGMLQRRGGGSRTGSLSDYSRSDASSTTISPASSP

B1: kB probe (dsDNA)
DNA 1: AATTCGTCAGAGGGGACTTTCCGAGAG
DNA 2: CTCTCGGAAAGTCCCCTCTGACGAATT
Take B1: the binding result in data set [1] is “no binding”.

B2: A/B probe (dsDNA)
DNA 1: AATTCGCTATTTTGGAAACTCCCCTTAGGGGATGCCCCTCAACTGCG
DNA 2: CGCAGTTGAGGGGCATCCCCTAAGGGGAGTTTCCAAAATAGCGAATT
For the molecule B2, the binding result in data set [2] is “binds”.

B3: C probe (dsDNA)
DNA 1: AATTCTCTAGATGAGAGAGCAGTGAGGGAGAGACG
DNA 2: CGTCTCTCCCTCACTGCTCTCTCATCTAGAGAATT
As to B3, the binding result in data set [1] is recorded as “no binding”.

B4: E probe (dsDNA)
DNA 1: AATTCTTTGTGCAATTTCACTTATGATACCG
DNA 2: CGGTATCATAAGTGAAATTGCACAAAGAATT
As to B4, in data set [1], the binding result is reported as “no binding”.

B5: A probe (dsDNA)
DNA 1: AATTCGTTGCTATTTTGGAAACTCCCCTTG
DNA 2: CAAGGGGAGTTTCCAAAATAGCAACGAATT
Turning to B5, the binding result in data set [1] was “binds”.

B6: B probe (dsDNA)
DNA 1: AATTCGCTAGGGGATGCCCCTCAACTGCG
DNA 2: CGCAGTTGAGGGGCATCCCCTAGCGAATT
B6: in data set [1], the binding result was “no binding”.
